Residue numbers refer to the chain shown, from its start.
Experiments:
Assay in all cases: holdup assay
Set-up in all cases: key: below the threshold = too weak to quantify, mostly under pKd 3.1 to 4
[1] = biological target: T1, APBA1_1, Q02410
T1 sequence (Q02410 651-752, limits assumed, looked up): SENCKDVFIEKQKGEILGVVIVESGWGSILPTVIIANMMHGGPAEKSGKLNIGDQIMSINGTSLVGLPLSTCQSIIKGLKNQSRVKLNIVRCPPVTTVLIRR

[2] = biological target: T2, CARD11, Q9BXL7
T2 sequence (Q9BXL7 662-765, limits assumed, looked up): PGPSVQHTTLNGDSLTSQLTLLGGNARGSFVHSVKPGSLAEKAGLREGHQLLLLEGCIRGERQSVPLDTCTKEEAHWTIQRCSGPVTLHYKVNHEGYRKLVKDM

[3] = biological target: T3, DFNB31_3, Q9P202
T3 sequence (Q9P202 811-907, limits assumed, looked up): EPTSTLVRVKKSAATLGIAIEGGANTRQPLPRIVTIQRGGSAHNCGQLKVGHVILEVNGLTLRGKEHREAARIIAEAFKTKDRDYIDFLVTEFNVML

[4] = biological target: DLG4_2, P78352
[5] = biological target: T4, FRMPD1, Q5SYB0
T4 sequence (Q5SYB0 52-145, limits assumed, looked up): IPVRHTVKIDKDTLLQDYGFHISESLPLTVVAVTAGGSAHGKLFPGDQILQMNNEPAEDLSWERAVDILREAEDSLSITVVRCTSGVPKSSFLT

[6] = biological target: FRMPD2_1, Q68DX3
[7] = biological target: FRMPD2_2, Q68DX3
[8] = biological target: FRMPD4, Q14CM0
[9] = biological target: GOPC, Q9HD26
[10] = biological target: T5, GRIP1_2, Q9Y3R0
T5 sequence (Q9Y3R0 145-248, limits assumed, looked up): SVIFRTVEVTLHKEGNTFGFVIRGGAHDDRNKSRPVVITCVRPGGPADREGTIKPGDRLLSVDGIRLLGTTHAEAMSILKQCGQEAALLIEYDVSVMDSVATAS

[11] = biological target: T6, GRIP1_3, Q9Y3R0
T6 sequence (Q9Y3R0 247-346, limits assumed, looked up): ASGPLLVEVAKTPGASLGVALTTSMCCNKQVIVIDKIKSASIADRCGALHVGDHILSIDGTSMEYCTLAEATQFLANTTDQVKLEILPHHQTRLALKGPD

[12] = biological target: GRIP2_5, Q9C0E4
[13] = biological target: GRIP2_6, Q9C0E4
[14] = biological target: Inadl_10, Q8NI35
[15] = biological target: Inadl_9, Q8NI35
[16] = biological target: T7, LIN7A, O14910
T7 sequence (O14910 103-200, limits assumed, looked up): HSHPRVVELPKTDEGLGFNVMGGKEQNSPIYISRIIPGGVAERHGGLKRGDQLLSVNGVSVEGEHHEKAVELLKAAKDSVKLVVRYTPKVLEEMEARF

[17] = biological target: T8, LIN7C, Q9NUP9
T8 sequence (Q9NUP9 88-185, limits assumed, looked up): T7 sequence (O14910 103-200, limits assumed, looked up) with D13E, V20I, V40I, E42D, K77Q, D78G, S79K, A96S

[18] = biological target: LNX1_2, Q8TBB1
[19] = biological target: MAGI1_1, Q96QZ7
[20] = biological target: MAGI2_3, Q86UL8
[21] = biological target: T9, MPP2, Q14168
T9 sequence (Q14168 180-250, limits assumed, looked up): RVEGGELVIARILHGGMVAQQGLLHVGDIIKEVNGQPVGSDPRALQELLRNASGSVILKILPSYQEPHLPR

[22] = biological target: T10, MPP6, Q9NZW5
T10 sequence (Q9NZW5 125-219, limits assumed, looked up): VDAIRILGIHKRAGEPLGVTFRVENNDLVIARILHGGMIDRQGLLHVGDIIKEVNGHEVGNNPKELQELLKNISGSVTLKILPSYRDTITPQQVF

[23] = biological target: T11, NHERF3_3, Q5T2W1
T11 sequence (Q5T2W1 238-333, limits assumed, looked up): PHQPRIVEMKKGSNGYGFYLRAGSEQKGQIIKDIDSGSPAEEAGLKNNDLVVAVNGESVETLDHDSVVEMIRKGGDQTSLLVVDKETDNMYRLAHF

[24] = biological target: PARD3_3, Q8TEW0
[25] = biological target: PDLIM1, O00151
[26] = biological target: T12, PDZD2_2, O15018
T12 sequence (O15018 329-429, limits assumed, looked up): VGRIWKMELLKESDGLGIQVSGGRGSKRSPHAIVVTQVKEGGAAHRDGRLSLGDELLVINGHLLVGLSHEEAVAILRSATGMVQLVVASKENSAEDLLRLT

[27] = plain residues with an end cap or a label only (N-terminal biotin on a linker: ahx)
[28] = plain residues with an end cap or a label only (N-terminal biotin on a linker: gsgsgs; C-terminal amide)
[29] = plain residues with an end cap or a label only (N-terminal biotin on a linker: ttds)

MAGI1_1, Q96QZ7, sequence (Q96QZ7 1-106): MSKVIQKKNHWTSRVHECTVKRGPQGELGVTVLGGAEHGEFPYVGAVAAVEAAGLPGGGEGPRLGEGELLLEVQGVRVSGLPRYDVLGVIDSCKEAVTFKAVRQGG
PDLIM1, O00151, sequence (O00151 1-87): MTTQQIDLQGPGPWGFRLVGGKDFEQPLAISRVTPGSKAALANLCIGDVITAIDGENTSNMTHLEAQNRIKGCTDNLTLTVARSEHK
LNX1_2, Q8TBB1, sequence (Q8TBB1 371-470): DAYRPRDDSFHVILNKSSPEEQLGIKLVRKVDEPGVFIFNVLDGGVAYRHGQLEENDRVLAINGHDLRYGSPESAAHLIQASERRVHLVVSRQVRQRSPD
Inadl_10, Q8NI35, sequence (Q8NI35 1673-1763): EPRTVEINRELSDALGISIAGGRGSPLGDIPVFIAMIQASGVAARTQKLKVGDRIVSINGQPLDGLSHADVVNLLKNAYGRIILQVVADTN
Inadl_9, Q8NI35, sequence (Q8NI35 1530-1615): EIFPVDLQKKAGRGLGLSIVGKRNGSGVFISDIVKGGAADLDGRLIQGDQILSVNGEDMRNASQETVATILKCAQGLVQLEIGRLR
PARD3_3, Q8TEW0, sequence (Q8TEW0 582-685): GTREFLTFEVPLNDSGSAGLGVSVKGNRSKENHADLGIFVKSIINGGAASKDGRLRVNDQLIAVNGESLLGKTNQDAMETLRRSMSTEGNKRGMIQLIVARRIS
DLG4_2, P78352, sequence (P78352 155-259): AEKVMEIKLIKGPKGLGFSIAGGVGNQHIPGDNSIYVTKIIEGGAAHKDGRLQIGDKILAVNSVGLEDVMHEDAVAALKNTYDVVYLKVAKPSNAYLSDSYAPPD
FRMPD2_1, Q68DX3, sequence (Q68DX3 770-861): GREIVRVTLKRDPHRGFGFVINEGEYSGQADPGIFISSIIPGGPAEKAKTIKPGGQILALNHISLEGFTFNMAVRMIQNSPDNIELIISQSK
GRIP2_5, Q9C0E4, sequence (Q9C0E4 544-642): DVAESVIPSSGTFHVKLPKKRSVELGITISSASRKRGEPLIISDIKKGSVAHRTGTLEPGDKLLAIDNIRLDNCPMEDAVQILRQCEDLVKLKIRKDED
MAGI2_3, Q86UL8, sequence (Q86UL8 600-682): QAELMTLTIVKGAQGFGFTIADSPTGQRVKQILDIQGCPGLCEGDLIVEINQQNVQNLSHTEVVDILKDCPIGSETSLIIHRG
GRIP2_6, Q9C0E4, sequence (Q9C0E4 648-740): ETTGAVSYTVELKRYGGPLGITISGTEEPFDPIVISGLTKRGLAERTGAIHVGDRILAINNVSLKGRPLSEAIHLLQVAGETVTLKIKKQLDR
FRMPD2_2, Q68DX3, sequence (Q68DX3 944-1038): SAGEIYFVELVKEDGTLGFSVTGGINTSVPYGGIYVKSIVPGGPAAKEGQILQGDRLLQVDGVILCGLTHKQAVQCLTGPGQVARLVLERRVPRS
FRMPD4, Q14CM0, sequence (Q14CM0 67-160): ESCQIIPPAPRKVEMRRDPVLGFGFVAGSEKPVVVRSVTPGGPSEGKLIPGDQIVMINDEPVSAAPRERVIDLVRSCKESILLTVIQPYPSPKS

Binder: HTHSYIETHV [CNKSR2, Q8WXI2]
- pKd [1, 27]: below the threshold
- pKd [2, 27]: below the threshold
- pKd [3, 27]: below the threshold
- pKd [4, 27]: 4.98
- pKd [5, 27]: below the threshold
- pKd [6, 27]: below the threshold
- pKd [7, 27]: 4.83
- pKd [8, 27]: below the threshold
- pKd [9, 27]: below the threshold
- pKd [10, 27]: below the threshold
- pKd [11, 27]: below the threshold
- pKd [12, 27]: below the threshold
- pKd [13, 27]: below the threshold
- pKd [14, 27]: below the threshold
- pKd [15, 27]: 3.64
- pKd [16, 27]: below the threshold
- pKd [17, 27]: 3.67
- pKd [18, 27]: below the threshold
- pKd [19, 27]: below the threshold
- pKd [20, 27]: 3.98
- pKd [21, 27]: below the threshold
- pKd [22, 27]: below the threshold
- pKd [23, 27]: below the threshold
- pKd [24, 27]: below the threshold
- pKd [25, 27]: below the threshold
- pKd [26, 27]: 4.24

Binder: TLSLTDSSVDGIPPYR [AXIN1_int, O15169]
- pKd [1, 28]: below the threshold
- pKd [2, 28]: below the threshold
- pKd [3, 28]: 3.91
- pKd [4, 28]: below the threshold
- pKd [5, 28]: below the threshold
- pKd [6, 28]: below the threshold
- pKd [7, 28]: below the threshold
- pKd [8, 28]: below the threshold
- pKd [9, 28]: below the threshold
- pKd [10, 28]: below the threshold
- pKd [11, 28]: below the threshold
- pKd [12, 28]: below the threshold
- pKd [13, 28]: below the threshold
- pKd [14, 28]: below the threshold
- pKd [15, 28]: below the threshold
- pKd [16, 28]: below the threshold
- pKd [17, 28]: 3.97
- pKd [18, 28]: below the threshold
- pKd [19, 28]: below the threshold
- pKd [20, 28]: below the threshold
- pKd [21, 28]: below the threshold
- pKd [22, 28]: 3.93
- pKd [23, 28]: below the threshold
- pKd [24, 28]: below the threshold
- pKd [25, 28]: below the threshold
- pKd [26, 28]: below the threshold

Binder: IYVPEAQTRL [DLGAP4, Q9Y2H0]
- pKd [1, 29]: below the threshold
- pKd [2, 29]: below the threshold
- pKd [3, 29]: below the threshold
- pKd [4, 29]: below the threshold
- pKd [5, 29]: below the threshold
- pKd [6, 29]: below the threshold
- pKd [7, 29]: below the threshold
- pKd [8, 29]: 4.25
- pKd [9, 29]: 4.21
- pKd [10, 29]: below the threshold
- pKd [11, 29]: below the threshold
- pKd [12, 29]: below the threshold
- pKd [13, 29]: below the threshold
- pKd [14, 29]: below the threshold
- pKd [15, 29]: below the threshold
- pKd [16, 29]: below the threshold
- pKd [17, 29]: below the threshold
- pKd [18, 29]: below the threshold
- pKd [19, 29]: below the threshold
- pKd [20, 29]: below the threshold
- pKd [21, 29]: below the threshold
- pKd [22, 29]: below the threshold
- pKd [23, 29]: 4.14
- pKd [24, 29]: 3.87
- pKd [25, 29]: below the threshold
- pKd [26, 29]: below the threshold

Binder: TVASEKESVM [SLC1A5, Q15758]
- pKd [1, 29]: below the threshold
- pKd [2, 29]: below the threshold
- pKd [3, 29]: below the threshold
- pKd [4, 29]: below the threshold
- pKd [5, 29]: below the threshold
- pKd [6, 29]: below the threshold
- pKd [7, 29]: below the threshold
- pKd [8, 29]: below the threshold
- pKd [9, 29]: 3.76
- pKd [10, 29]: below the threshold
- pKd [11, 29]: below the threshold
- pKd [12, 29]: below the threshold
- pKd [13, 29]: below the threshold
- pKd [14, 29]: below the threshold
- pKd [15, 29]: below the threshold
- pKd [16, 29]: below the threshold
- pKd [17, 29]: 3.62
- pKd [18, 29]: below the threshold
- pKd [19, 29]: below the threshold
- pKd [20, 29]: below the threshold
- pKd [21, 29]: below the threshold
- pKd [22, 29]: below the threshold
- pKd [23, 29]: below the threshold
- pKd [24, 29]: below the threshold
- pKd [25, 29]: below the threshold
- pKd [26, 29]: below the threshold

Binder: PKTPPTDTSV [KIR3DL3, Q8N743]
- pKd [1, 29]: below the threshold
- pKd [2, 29]: below the threshold
- pKd [3, 29]: below the threshold
- pKd [4, 29]: 4.22
- pKd [5, 29]: below the threshold
- pKd [6, 29]: below the threshold
- pKd [7, 29]: below the threshold
- pKd [8, 29]: 3.78
- pKd [9, 29]: 3.5
- pKd [10, 29]: below the threshold
- pKd [11, 29]: below the threshold
- pKd [12, 29]: below the threshold
- pKd [13, 29]: below the threshold
- pKd [14, 29]: below the threshold
- pKd [15, 29]: below the threshold
- pKd [16, 29]: below the threshold
- pKd [17, 29]: 3.51
- pKd [18, 29]: below the threshold
- pKd [19, 29]: below the threshold
- pKd [20, 29]: below the threshold
- pKd [21, 29]: below the threshold
- pKd [22, 29]: below the threshold
- pKd [23, 29]: below the threshold
- pKd [24, 29]: below the threshold
- pKd [25, 29]: below the threshold
- pKd [26, 29]: 4

Source: PMC9482650, “Quantitative fragmentomics allow affinity mapping of interactomes” (Nature Communications, 2022)
